The test system of data set [1] is HeLa Kyoto. Kind of data set: solubility change mitosis vs G1/S (difference of NP-40 vs SDS log2 ratios) (log2 ratio difference); higher = more soluble in mitosis.
For data set [2], the system named is HeLa Kyoto. The data set is described as follows: thermal stability score vs G1/S (z-score of summed log2 fold changes over temperatures); higher = more thermally stable than in G1/S.
The subject of data set [3] is HeLa Kyoto. Kind of data set: solubility in G1/S (NP-40 vs SDS abundance) (log2 ratio); higher = more soluble. The settings on record: cell cycle stage: G1/S.
For data set [4], the system named is HeLa Kyoto. The data set is described as follows: melting temperature (median over replicates), in situ; higher = more thermally stable.
The mark [5] stands for this setting: cell cycle stage: early G1 (4.5 h after nocodazole release).
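For melting temperature (median over replicates), in situ in this document: HeLa Kyoto cells synchronized by double thymidine or nocodazole block, proteins quantified by TMT10plex mass spectrometry, three independent biological replicates.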
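For solubility change mitosis vs G1/S (difference of NP-40 vs SDS log2 ratios) in this document: synchronized HeLa Kyoto cells (double thymidine block for G1/S, nocodazole release for mitosis), protein amounts in NP-40 versus SDS lysates quantified by mass spectrometry, three biological replicates.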
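For solubility in G1/S (NP-40 vs SDS abundance) in this document: HeLa Kyoto cells arrested at G1/S by double thymidine block, proteins quantified by TMT10plex mass spectrometry in mild NP-40 versus SDS extracts, three biological replicates.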
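For thermal stability score vs G1/S (z-score of summed log2 fold changes over temperatures) in this document: synchronized HeLa Kyoto cells, proteins quantified by TMT10plex mass spectrometry, three biological replicates, mitosis taken 0.5 h after nocodazole release, G1/S directly after double thymidine block.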

“MAAAAVSGALGRAGWRLLQLRCLPVARCRQALVPRAFHASAVGLRSSDEQKQQPPNSFSQQHSETQGAEKPDPESSHSPPRYTDQGGEEEEDYESEEQLQHRILTAALEFVPAHGWTAEAIAEGAQSLGLSSAAASMFGKDGSELILHFVTQCNTRLTRVLEEEQKLVQLGQAEKRKTDQFLRDAVETRLRMLIPYIEHWPRALSILMLPHNIPSSLSLLTSMVDDMWHYAGDQSTDFNWYTRRAMLAAIYNTTELVMMQDSSPDFEDTWRFLENRVNDAMNMGHTAKQVKSTGEALVQGLMGAAVTLKNLTGLNQRR [COQ9]”: in the data set on HeLa Kyoto [1], the “solubility change mitosis (log2)” value came out at 0.333. The thermal stability score with HeLa Kyoto [2] (setting [5]) is -0.112; in the data set with HeLa Kyoto [2] (cell cycle stage: mitosis), 0.754. In the data set with HeLa Kyoto [3], the “solubility in G1/S (log2)” value turned out to be 0.16. Also, the melting temperature amounted to 51.5 °C with HeLa Kyoto [4] (cell cycle stage: G1/S) and 51.8 °C with HeLa Kyoto [4] (cell cycle stage: mitosis).
Regarding “MSRRSQRLTRYSQGDDDGSSSSGGSSVAGSQSTLFKDSPLRTLKRKSSNMKRLSPAPQLGPSSDAHTSYYSESLVHESWFPPRSSLEELHGDANWGEDLRVRRRRGTGGSESSRASGLVGRKATEDFLGSSSGYSSEDDYVGYSDVDQQSSSSRLRSAVSRAGSLLWMVATSPGRLFRLLYWWAGTTWYRLTTAASLLDVFVLTRRFSSLKTFLWFLLPLLLLTCLTYGAWYFYPYGLQTFHPALVSWWAAKDSRRPDEGWEARDSSPHFQAEQRVMSRVHSLERRLEALAAEFSSNWQKEAMRLERLELRQGAPGQGGGGGLSHEDTLALLEGLVSRREAALKEDFRRETAARIQEELSALRAEHQQDSEDLFKKIVRASQESEARIQQLKSEWQSMTQESFQESSVKELRRLEDQLAGLQQELAALALKQSSVAEEVGLLPQQIQAVRDDVESQFPAWISQFLARGGGGRVGLLQREEMQAQLRELESKILTHVAEMQGKSAREAAASLSLTLQKEGVIGVTEEQVHHIVKQALQRYSEDRIGLADYALESGGASVISTRCSETYETKTALLSLFGIPLWYHSQSPRVILQPDVHPGNCWAFQGPQGFAVVRLSARIRPTAVTLEHVPKALSPNSTISSAPKDFAIFGFDEDLQQEGTLLGKFTYDQDGEPIQTFHFQAPTMATYQVVELRILTNWGHPEYTCIYRFRVHGEPAH [SUN2]”, the “solubility change mitosis (log2)” value with HeLa Kyoto [1] worked out at 0.229. Also, the thermal stability score with HeLa Kyoto [2] (setting [5]) was -1.84; in the data set on HeLa Kyoto [2] (cell cycle stage: mitosis), -1.17. In addition, in the data set with HeLa Kyoto [3], the “solubility in G1/S (log2)” value is -0.141. The melting temperature in the data set on HeLa Kyoto [4] (cell cycle stage: G1/S) stood at 52.4 °C; in the data set with HeLa Kyoto [4] (cell cycle stage: mitosis), 55.1 °C.
Turning to “MAATRSPTRARERERSGAPAAGSDQVHSWMLATSQALDTVWRMAKGFVMLAVSFLVAAICYFRRLHLYSGHKLKWWIGYLQRKFKRNLSVEAEVDLLSYCAREWKGETPRNKLMRKAYEELFWRHHIKCVRQVRRDNYDALRSVLFQIFSQGISFPSWMKEKDIVKLPEKLLFSQGCNWIQQYSFGPEKYTGSNVFGKLRKYVELLKTQWTEFNGIRDYHKRGSMCNTLFSDAILEYKLYEALKFIMLYQVTEVYEQMKTKKVIPSLFRLLFSRETSSDPLSFMMNHLNSVGDTCGLEQIDMFILGYSLEVKIKVFRLFKFNSRDFEVCYPEEPLRDWPEISLLTENDRHYHIPVF [FAM105A]”, the “solubility change mitosis (log2)” value in the data set on HeLa Kyoto [1] was -0.0882. The thermal stability score was -0.702 with HeLa Kyoto [2] (setting [5]) and -1.45 in the data set on HeLa Kyoto [2] (cell cycle stage: mitosis). Also, the “solubility in G1/S (log2)” value in the data set with HeLa Kyoto [3] is -0.437. Moreover, the melting temperature in the data set with HeLa Kyoto [4] (cell cycle stage: mitosis) was 52.7 °C.
For “MAAEDELQLPRLPELFETGRQLLDEVEVATEPAGSRIVQEKVFKGLDLLEKAAEMLSQLDLFSRNEDLEEIASTDLKYLLVPAFQGALTMKQVNPSKRLDHLQRAREHFINYLTQCHCYHVAEFELPKTMNNSAENHTANSSMAYPSLVAMASQRQAKIQRYKQKKELEHRLSAMKSAVESGQADDERVREYYLLHLQRWIDISLEEIESIDQEIKILRERDSSREASTSNSSRQERPPVKPFILTRNMAQAKVFGAGYPSLPTMTVSDWYEQHRKYGALPDQGIAKAAPEEFRKAAQQQEEQEEKEEEDDEQTLHRAREWDDWKDTHPRGYGNRQNMG [IGBP1]”, the “solubility change mitosis (log2)” value in the data set with HeLa Kyoto [1] is 0.103. The thermal stability score with HeLa Kyoto [2] (setting [5]) is -0.476; in the data set on HeLa Kyoto [2] (cell cycle stage: mitosis), -0.0586. The “solubility in G1/S (log2)” value with HeLa Kyoto [3] was found to be 0.454. Besides, the melting temperature in the data set on HeLa Kyoto [4] (cell cycle stage: G1/S) worked out at 50.7 °C; in the data set on HeLa Kyoto [4] (cell cycle stage: mitosis), 51.4 °C.
On to “MLRWLIGGGREPQGLAEKSPLQTIGEEQTQNPYTELLVLKAHHDIVRFLVQLDDYRFASAGDDGIVVVWNAQTGEKLLELNGHTQKITAIITFPSLESCEEKNQLILTASADRTVIVWDGDTTRQVQRISCFQSTVKCLTVLQRLDVWLSGGNDLCVWNRKLDLLCKTSHLSDTGISALVEIPKNCVVAAVGKELIIFRLVAPTEGSLEWDILEVKRLLDHQDNILSLINVNDLSFVTGSHVGELIIWDALDWTMQAYERNFWDPSPQLDTQQEIKLCQKSNDISIHHFTCDEENVFAAVGRGLYVYSLQMKRVIACQKTAHDSNVLHVARLPNRQLISCSEDGSVRIWELREKQQLAAEPVPTGFFNMWGFGRVSKQASQPVKKQQENATSCSLELIGDLIGHSSSVEMFLYFEDHGLVTCSADHLIILWKNGERESGLRSLRLFQKLEENGDLYLAV [WDR41]”, for which, in the data set on HeLa Kyoto [1], the “solubility change mitosis (log2)” value is -0.21. Besides, the results for the thermal stability score in the data set on HeLa Kyoto [2] (setting [5]) and in the data set on HeLa Kyoto [2] (cell cycle stage: mitosis) were -1.29 and -1.46, respectively. The “solubility in G1/S (log2)” value with HeLa Kyoto [3] was 0.0666. Further, the melting temperature came out at 52.8 °C in the data set on HeLa Kyoto [4] (cell cycle stage: G1/S) and 53.4 °C in the data set on HeLa Kyoto [4] (cell cycle stage: mitosis).
Turning to “MLYFSLFWAARPLQRCGQLVRMAIRAQHSNAAQTQTGEANRGWTGQESLSDSDPEMWELLQREKDRQCRGLELIASENFCSRAALEALGSCLNNKYSEGYPGKRYYGGAEVVDEIELLCQRRALEAFDLDPAQWGVNVQPYSGSPANLAVYTALLQPHDRIMGLDLPDGGHLTHGYMSDVKRISATSIFFESMPYKLNPKTGLIDYNQLALTARLFRPRLIIAGTSAYARLIDYARMREVCDEVKAHLLADMAHISGLVAAKVIPSPFKHADIVTTTTHKTLRGARSGLIFYRKGVKAVDPKTGREIPYTFEDRINFAVFPSLQGGPHNHAIAAVAVALKQACTPMFREYSLQVLKNARAMADALLERGYSLVSGGTDNHLVLVDLRPKGLDGARAERVLELVSITANKNTCPGDRSAITPGGLRLGAPALTSRQFREDDFRRVVDFIDEGVNIGLEVKSKTAKLQDFKSFLLKDSETSQRLANLRQRVEQFARAFPMPGFDEH [SHMT2]”, the “solubility change mitosis (log2)” value in the data set with HeLa Kyoto [1] is -0.0179. The thermal stability score with HeLa Kyoto [2] (setting [5]) turned out to be 0.0206; in the data set with HeLa Kyoto [2] (cell cycle stage: mitosis), 0.314. Besides, in the data set with HeLa Kyoto [3], the “solubility in G1/S (log2)” value is 0.416. The melting temperature in the data set on HeLa Kyoto [4] (cell cycle stage: G1/S) is 56.7 °C; in the data set with HeLa Kyoto [4] (cell cycle stage: mitosis), 56.8 °C.

The values are drawn from the supplement of paper PMC5998384.
